This assay deals with T1, Recombinant Stabilized SARS-CoV-2 Spike (SARS-CoV-2, Wuhan-Hu-1 reference (wave …, UniProt P0DTC2, stabilised)).
T1 construct: also called Pre-fusion, stabilized and uncleaved SARS-CoV-2 Spike (pcDNA3.1+)
The assay is described as follows: ELISA. Particulars: both partners purified.

B1: COVA1-16 (antibody, V domains shown)
VH: QVQLVQSGAEVKKPGASVKVSCKASGYTFTSYYMHWVRQAPGQGLEWMGIINSSGGSTSYAQKFQGRVTMTRDTSTSTVYMELSSLRSEDTAVYYCARPPRNYYDRSGYYQRAEYFQHWGQGTLVTVSS
VL: DIQLTQSPSSLSASVGDRVTITCQASQDISNYLNWYQQRPGKAPKLLIYDASNLETGVPSRFSGSGSGTDFTFTISSLQPEDIATYYCQQYDNPPLTFGGGTKLEIK
notes: IgG; RBD Class 4
Regarding B1, the binding result was “binds”.

B2: COVA2-39 (antibody, V domains shown)
VH: QVQLVETGGGLIQPGGSLRLSCAASGFTVSSNYMSWVRQAPGKGLEWVSVIYTGGTTYYADSVKGRFTISRDNSKNTLYLQMNSLRAEDTAVYYCARAHVDTAMVESGAFDIWGQGTRVTVSS
VL: QSALTQPASVSGSPGQSITISCTGTSSDVGSYNLVSWYQQHPGKAPKLMIYEVTKRPSGVSNRFSGSKSGNTASLTISGLQAEDEADYYCCSYAGSSTWVFGGGTKLTVL
notes: IgG; RBD Class 2
Regarding B2, the binding result was “binds”.

Values taken from PMC8015430 (Immunity, 2021).
